One test deals with ZDF fa/fa rats. Nature of the test: Oral glucose tolerance test in ZDF fa/fa rats, humanized mAbs. The test is classed as in vivo, rat. Conditions: single s.c. administration 0.2 mg/kg. The source says:
This example describes evaluation of mouse mAb 5F12G1 and its twelve humanized clones in Zucker Diabetic fatty (ZDF fa/fa) rats for effects on insulin sensitivity in animals. Zucker Diabetic Rats develop symptoms similar to type 2 diabetes and are genetically resistant to insulin. […] Therefore, the Zucker rat is a good model to test the ability of the monoclonal antibody to increase insulin sensitivity, especially in an OGTT.
Male ZDF fa/fa rats were obtained from Charles River (Kingston, ON). Upon arrival, rats were ten weeks of age. The rats were housed individually per cage in a room with a photo cycle of 12 hours of light and 12 hours of dark and an ambient temperature of 70-72° F. and fed on regular rodent diet and water ad libitum. After seven days of acclimatization, rats were grouped into fourteen groups of three rats per group (Table 10).
Oral Glucose Tolerance Test. An oral glucose tolerance test (OGTT) was performed on overnight fasted (16 hours) rats. Rats received subcutaneously administered humanized mAbs, mouse mAb 5F12G1 (positive control) and PBS (vehicle control) at a dose of 0.2 mg/kg body weight, thirty minutes prior to glucose administration. D-Glucose was prepared in distilled water and administered orally at 2 g/kg body weight. Blood glucose levels were measured before administration of humanized mAbs, 5F12G1 or vehicle (t=−30 minutes) and just before glucose loading (0 minute), and at timepoints of 30, 60, 90 and 120 minutes, using Accu-chek™ glucose meter.

For the next test, the target named is T1, BKB2 receptor (Homo sapiens, UniProt P30411).
T1 sequence (P30411 1-391): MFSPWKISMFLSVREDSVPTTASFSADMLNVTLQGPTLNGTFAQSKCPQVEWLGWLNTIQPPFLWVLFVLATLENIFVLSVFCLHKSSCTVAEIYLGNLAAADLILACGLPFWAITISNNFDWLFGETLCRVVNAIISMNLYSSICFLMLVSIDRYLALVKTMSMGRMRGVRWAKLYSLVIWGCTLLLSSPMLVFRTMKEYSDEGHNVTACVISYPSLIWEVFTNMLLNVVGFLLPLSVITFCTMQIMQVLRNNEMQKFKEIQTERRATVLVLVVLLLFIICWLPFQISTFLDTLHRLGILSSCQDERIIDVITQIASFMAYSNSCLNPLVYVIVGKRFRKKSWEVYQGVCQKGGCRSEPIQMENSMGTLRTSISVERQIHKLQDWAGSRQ
The experiment in a line: Intracellular calcium release in CHO-K1/B2/Gα15 cells (FLIPR Calcium 4). The test is classed as cell-based. Also on record: expressed in transfected cells. As to conditions: 0.5 mg/ml; normalized to the positive control; mean+/−SD, n=2. A general note: A change in cytosolic calcium serves as a functional read-out for many receptors and channels.

Procedure for BKB2 receptor: A stable CHO cell line expressing the human BKB2 receptor (CHO-K1/B2/Gα15) was used for the screening. The antibody was diluted to five different concentrations, from 0.5 mg/ml, via three-fold dilution increments, and screened on duplicate cell samples.
Expression and functional activity of the human BKB2 receptor in the CHO-K1/B2/Gα15 cell line were validated by exposure to the positive control, bradykinin.
To perform the assay, CHO-K1/B2/Gα15 cells were seeded in wells of a 384-well black-wall, clear-bottom plate at a density of 20,000 cells per well in 20 μL of growth medium 20 hours prior to the day of experiment, and maintained at 37° C./5% CO2. 20 μL of dye-loading solution (FLIPR™ Calcium 4 assay kit, Molecular Devices, Sunnyvale, Calif.) was added into each well and the plate was placed into a 37° C. incubator for 60 minutes, followed by 15 minutes at room temperature. The total reading time was 120 sec. After a 20-second reading to establish the baseline, the antibody or agonist were added to selected wells and the fluorescence signal was captured for another 100 seconds (21 s to 120 s). Readings from wells containing cells stimulated with assay buffer (0.03% Na3N PBS) containing 1% DMSO were chosen as the background values for screening; readings from wells containing cells stimulated with the agonist bradykinin (at 10 uM) were chosen as the positive control.

B1: 5F12G1: murine monoclonal anti-BKB2R antibody (IgG2b,κ), VH comprising SEQ ID NO:1, VL comprising SEQ ID NO:2 (antibody, listed as Mus musculus, V domains shown)
VH: EVKLEESGGGLVQPGGSMKLSCVVSGFTFSDYWMSWVRHSPEMGLEWVAEIRLKSDNYATHYAESVKGRFTISRDDSKSRLYLQINSLRGEDTGIYYCTRDYYAMEYWGQGTSVTVSS
VL: DVVMTQTPLSLPVSLGDQASISCRSSQTIVHSNGKTYLEWYLQKPGQSPKLLIYKVSNRFSGVPDRFSGSGSGTEFTLKISRVETEDLGVYYCFQASHVPYTFGGGTKLEIK
For the molecule B1, the glucose tolerance entry with ZDF fa/fa rats is reported as “showed improvement in glucose tolerance”. Also, the “area under curve (AUC) of blood glucose concentration after oral administration of glucose, compared to vehicle control” value in the test with ZDF fa/fa rats (30 min prior to glucose 2 g/kg) is recorded as “decreased”. In addition, in the test with BKB2 receptor, the percentage of activation is 72.7+/−3.5%.
